Source: US20100260668A1 (published 2010)
Blank lines part the entries; values can stand above or below the binder they belong to.

What was measured:
[1] = target: recombinant human VEGF165 (human, UniProt P15692-4 27-191); assay: cell-based or functional assay
[2] = target: recombinant human HGF (human, UniProt P14210 32-728); assay: cell-based or functional assay
[3] = target: T1, HGF (UniProt P14210 32-728); assay: Biacore SPR
T1 construct: Bought reagent
Experimental: The BIACORE assay (Biacore, Inc, Piscataway, N.J.) determines the affinity of antibodies or DVD-Ig with kinetic measurements of on-rate and off-rate constants. Binding of antibodies or DVD-Ig to a target antigen (for example, a purified recombinant target antigen) is determined by surface plasmon resonance-based measurements with a Biacore® 1000 or 3000 instrument (Biacore® AB, Uppsala, Sweden) using running HBS-EP (10 mM HEPES [pH 7.4], 150 mM NaCl, 3 mM EDTA, and 0.005% surfactant P20) at 25° C. […] For example, approximately 5000 RU of goat anti-mouse IgG, (Fcγ), fragment specific polyclonal antibody (Pierce Biotechnology Inc, Rockford, Ill.) diluted in 10 mM sodium acetate (pH 4.5) is directly immobilized across a CM5 research grade biosensor chip using a standard amine coupling kit according to manufacturer's instructions and procedures at 25 μg/ml. Unreacted moieties on the biosensor surface are blocked with ethanolamine. Modified carboxymethyl dextran surface in flowcell 2 and 4 is used as a reaction surface. Unmodified carboxymethyl dextran without goat anti-mouse IgG in flow cell 1 and 3 is used as the reference surface. For kinetic analysis, rate equations derived from the 1:1 Langmuir binding model are fitted simultaneously to association and dissociation phases of all eight injections (using global fit analysis) with the use of Biaevaluation 4.0.1 software. Purified antibodies or DVD-Ig are diluted in HEPES-buffered saline for capture across goat anti-mouse IgG specific reaction surfaces. Antibodies or DVD-Ig to be captured as a ligand (25 μg/ml) are injected over reaction matrices at a flow rate of 5 μl/min. The association and dissociation rate constants, kₒₙ (M⁻¹s⁻¹) and koff (s⁻¹) are determined under a continuous flow rate of 25 μl/min. Rate constants are derived by making kinetic binding measurements at different antigen concentrations ranging from 10-200 nM. The equilibrium dissociation constant (M) of the reaction between antibodies or DVD-Igs and the target antigen is then calculated from the kinetic rate constants by the following formula: KD=koff/kₒₙ. Binding is recorded as a function of time and kinetic rate constants are calculated.

[4] = target: T2, placental growth factor (PLGF) (UniProt P49763-2 21-149, limits assumed); assay: ligand-receptor binding competition assay, PlGF binding to VEGFR1; N-terminal VD
T2 construct: also called P1GF
T2 sequence (looked up): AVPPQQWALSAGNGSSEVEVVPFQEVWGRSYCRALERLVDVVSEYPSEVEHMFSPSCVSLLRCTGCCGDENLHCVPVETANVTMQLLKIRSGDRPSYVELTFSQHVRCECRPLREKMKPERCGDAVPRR

[5] = target: T3, VEGF (UniProt P15692 27-191, limits assumed); assay: direct bind ELISA, N-terminal VD
T3 construct: bought antigen coated on the ELISA plate
T3 sequence (P15692 other isoform, or with tags, fused parts or gaps limits assumed): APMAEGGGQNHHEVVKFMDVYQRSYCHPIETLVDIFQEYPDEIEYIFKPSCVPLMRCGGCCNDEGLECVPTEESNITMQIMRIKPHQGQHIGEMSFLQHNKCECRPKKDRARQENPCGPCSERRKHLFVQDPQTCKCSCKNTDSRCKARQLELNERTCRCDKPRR

[6] = target: T4, PlGF (UniProt P49763-2 21-149, limits assumed); assay: direct bind ELISA, C-terminal VD
T4 construct: bought antigen coated on the ELISA plate; also called Placental GF
T4 sequence (looked up): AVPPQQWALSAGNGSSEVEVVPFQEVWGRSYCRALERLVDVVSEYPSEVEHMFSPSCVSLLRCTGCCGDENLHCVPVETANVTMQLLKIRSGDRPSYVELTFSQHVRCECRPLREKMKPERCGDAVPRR
Experimental: Enzyme Linked Immunosorbent Assays to screen for antibodies that bind a desired target antigen were performed as follows. […] Plates were washed four times with PBS containing 0.02% Tween 20. Plates were blocked by the addition of 300 μL/well blocking solution (non-fat dry milk powder, various retail suppliers, diluted to 2% in PBS) for ½ hour at room temperature. Plates were washed four times after blocking with PBS containing 0.02% Tween 20.
Plates were washed 4 times with PBS containing 0.02% Tween 20.

Sequence of recombinant human HGF (P14210 32-728 limits assumed): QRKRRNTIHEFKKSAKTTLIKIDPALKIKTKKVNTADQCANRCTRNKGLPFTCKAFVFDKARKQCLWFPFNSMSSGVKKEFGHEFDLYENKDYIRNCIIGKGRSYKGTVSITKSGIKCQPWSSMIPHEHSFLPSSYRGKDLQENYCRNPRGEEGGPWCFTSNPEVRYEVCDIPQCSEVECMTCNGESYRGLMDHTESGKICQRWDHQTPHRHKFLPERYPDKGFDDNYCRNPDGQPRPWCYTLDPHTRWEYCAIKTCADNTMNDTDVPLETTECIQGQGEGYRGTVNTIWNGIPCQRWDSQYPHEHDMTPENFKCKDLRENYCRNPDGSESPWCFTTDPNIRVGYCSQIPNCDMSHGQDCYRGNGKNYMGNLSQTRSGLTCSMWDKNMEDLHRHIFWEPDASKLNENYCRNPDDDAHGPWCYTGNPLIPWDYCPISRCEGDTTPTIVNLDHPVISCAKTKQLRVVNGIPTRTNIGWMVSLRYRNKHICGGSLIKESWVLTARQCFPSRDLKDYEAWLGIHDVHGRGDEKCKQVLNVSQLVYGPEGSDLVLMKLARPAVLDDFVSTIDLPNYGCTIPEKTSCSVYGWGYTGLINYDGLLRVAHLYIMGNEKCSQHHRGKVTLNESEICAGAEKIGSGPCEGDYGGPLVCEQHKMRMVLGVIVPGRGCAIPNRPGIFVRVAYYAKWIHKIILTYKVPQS
T1 sequence (P14210 32-728 limits assumed): as above
Sequence of recombinant human VEGF165 (P15692 other isoform, or with tags, fused parts or gaps limits assumed): as the sequence (P15692 other isoform, or with tags, fused parts or gaps limits assumed) above

B2: DVD471 (bispecific antibody, human IgG1, kappa, L234A L235A)
heavy: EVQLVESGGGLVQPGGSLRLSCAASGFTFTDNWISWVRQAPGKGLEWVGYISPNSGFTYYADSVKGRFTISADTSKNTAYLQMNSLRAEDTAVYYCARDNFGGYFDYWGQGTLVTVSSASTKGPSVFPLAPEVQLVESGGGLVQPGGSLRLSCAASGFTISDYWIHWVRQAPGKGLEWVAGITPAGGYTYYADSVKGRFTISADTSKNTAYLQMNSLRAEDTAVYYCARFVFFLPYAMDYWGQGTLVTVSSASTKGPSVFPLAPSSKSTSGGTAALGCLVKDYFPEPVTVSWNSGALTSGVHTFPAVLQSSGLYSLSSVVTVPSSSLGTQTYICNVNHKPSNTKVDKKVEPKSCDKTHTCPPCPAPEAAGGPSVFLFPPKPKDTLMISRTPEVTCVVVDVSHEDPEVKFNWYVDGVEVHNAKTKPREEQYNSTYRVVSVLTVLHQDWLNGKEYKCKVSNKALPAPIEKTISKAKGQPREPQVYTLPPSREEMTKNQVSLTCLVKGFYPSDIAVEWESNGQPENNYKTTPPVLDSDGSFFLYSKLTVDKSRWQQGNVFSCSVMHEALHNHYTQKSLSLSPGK
light: DIQMTQSPSSLSASVGDRVTITCRASQDVSTAVAWYQQKPGKAPKLLIYSASFLYSGVPSRFSGSGSGTDFTLTISSLQPEDFATTYYCQQSYTGTVTFGQGTKVEIKRTVAAPSVFIFPPDIQMTQSPSSLSASVGDRVTITCRASQDVSTAVAWYQQKPGKAPKLLIYSASFLYSGVPSRFSGSGSGTDFTLTISSLQPEDFATYYCQQSYTTPPTFGQGTKVEIKRTVAAPSVFIFPPSDEQLKSGTASVVCLLNNFYPREAKVQWKVDNALQSGNSQESVTEQDSKDSTYSLSSTLTLSKADYEKHKVYACEVTHQGLSSPVTKSFNRGEC
- inhibition of HUVEC proliferation (IC50) [1]: 6.8 nM

B3: AB071 (antibody, human IgG1, kappa, L234A L235A, V domains shown)
VH: EVQLVESGGGLVQPGGSLRLSCAASGFTINASWIHWVRQAPGKGLEWVGAIYPYSGYTNYADSVKGRFTISADTSKNTAYLQMNSLRAEDTAVYYCARWGHSTSPWAMDYWGQGTLVTVSS
VL: DIQMTQSPSSLSASVGDRVTITCRASQVIRRSLAWYQQKPGKAPKLLIYAASNLASGVPSRFSGSGSGTDFTLTISSLQPEDFATYYCQQSNTSPLTFGQGTKVEIKR
- inhibition of HUVEC proliferation (IC50) [1]: 2.5 nM

B4: DVD474 (bispecific antibody, human IgG1, kappa)
heavy: not shown
light: DIQMTQSPSSLSASVGDRVTITCRASQVIRRSLAWYQQKPGKAPKLLIYAASNLASGVPSRFSGSGSGTDFTLTISSLQPEDFATYYCQQSNTSPLTFGQGTKVEIKRTVAAPSVFIFPPDIQMTQSPSSLSASVGDRVTITCRASQDVSTAVAWYQQKPGKAPKLLIYSASFLYSGVPSRFSGSGSGTDFTLTISSLQPEDFATTYYCQQSYTGTVTFGQGTKVEIKRTVAAPSVFIFPPSDEQLKSGTASVVCLLNNFYPREAKVQWKVDNALQSGNSQESVTEQDSKDSTYSLSSTLTLSKADYEKHKVYACEVTHQGLSSPVTKSFNRGEC
- inhibition of HUVEC proliferation (IC50) [1]: 0.42 nM

B6: DVD476 (bispecific antibody, human IgG1, kappa)
heavy: not shown
light: DIQMTQSPSSLSASVGDRVTITCSASQDISNYLNWYQQKPGKAPKVLIYFTSSLHSGVPSRFSGSGSGTDFTLTISSLQPEDFATYYCQQYSTVPWTFGQGTKVEIKRTVAAPDIQMTQSPSSLSASVGDRVTITCRASQDVSTAVAWYQQKPGKAPKLLIYSASFLYSGVPSRFSGSGSGTDFTLTISSLQPEDFATTYYCQQSYTGTVTFGQGTKVEIKRTVAAPSVFIFPPSDEQLKSGTASVVCLLNNFYPREAKVQWKVDNALQSGNSQESVTEQDSKDSTYSLSSTLTLSKADYEKHKVYACEVTHQGLSSPVTKSFNRGEC
- inhibition of HUVEC proliferation (IC50) [1]: 0.24 nM

B7: DVD045 (bispecific antibody, human IgG1, kappa)
heavy: not shown
light: DIQMTQSPSSLSASVGDRVTITCSASQDISNYLNWYQQKPGKAPKVLIYFTSSLHSGVPSRFSGSGSGTDFTLTISSLQPEDFATYYCQQYSTVPWTFGQGTKVEIKRTVAAPDIQMTQSPSSVSASVGDRVTITCRASQGISSWLAWYQQKPGKAPNLLIYEASSLQSGVPSRFGGSGSGTDFTLTISSLQPEDFATYYCQQANGFPWTFGQGTKVEIKRTVAAPSVFIFPPSDEQLKSGTASVVCLLNNFYPREAKVQWKVDNALQSGNSQESVTEQDSKDSTYSLSSTLTLSKADYEKHKVYACEVTHQGLSSPVTKSFNRGEC
- Inhibition Of Akt Phosphorylation (% Inhibition At 0.67 nM Ab/DVD) [2]: -15%
- Inhibition Of Akt Phosphorylation (% Inhibition At 6.7 nM Ab/DVD) [2]: -2%
- Inhibition Of Akt Phosphorylation (% Inhibition At 67 nM Ab/DVD) [2]: 64%

B8: AB012 (antibody, human IgG1, kappa, V domains shown)
VH: QVQLVESGGGLVKPGGSLRLSCAASGFTFSDYYMSWIRQAPGKGLEWVSYISSSGSTIYYADSVKGRFTISRDNAKNSLYLQMNSLRAEDTAVYYCARDEYNSGWYVLFDYWGQGTLVTVSS
VL: DIQMTQSPSSVSASVGDRVTITCRASQGISSWLAWYQQKPGKAPNLLIYEASSLQSGVPSRFGGSGSGTDFTLTISSLQPEDFATYYCQQANGFPWTFGQGTKVEIKR
- Inhibition Of Akt Phosphorylation (% Inhibition At 0.67 nM Ab/DVD) [2]: 79%
- Inhibition Of Akt Phosphorylation (% Inhibition At 6.7 nM Ab/DVD) [2]: 110%
- Inhibition Of Akt Phosphorylation (% Inhibition At 67 nM Ab/DVD) [2]: 106%

B9: AB012 (antibody, human IgG1, kappa, V domains shown)
VH: QVQLVESGGGLVKPGGSLRLSCAASGFTFSDYYMSWIRQAPGKGLEWVSYISSSGSTIYYADSVKGRFTISRDNAKNSLYLQMNSLRAEDTAVYYCARDEYNSGWYVLFDYWGQGTLVTVSS
VL: DIQMTQSPSSVSASVGDRVTITCRASQGISSWLAWYQQKPGKAPNLLIYEASSLQSGVPSRFGGSGSGTDFTLTISSLQPEDFATYYCQQANGFPWTFGQGTKVEIKR
- Kd [3]: < 0.0284 nM
- koff [3]: 0.000284 s⁻¹
- kon [3]: > 1e+07 M⁻¹ s⁻¹

B11: DVD034 (bispecific antibody, human IgG1, kappa)
heavy: not shown
light: DIQMTQSPSSVSASVGDRVTITCRASQGISSWLAWYQQKPGKAPNLLIYEASSLQSGVPSRFGGSGSGTDFTLTISSLQPEDFATYYCQQANGFPWTFGQGTKVEIKRTVAAPDVVMTQSPLSLPVTPGEPASISCRSSQSLLHSNGFNYVDWYLQKPGQSPHLLIYFGSYRASGVPDRFSGSGSGTDFTLKISRVEAEDVGVYYCMQALQTPPWTFGQGTKVEIRRTVAAPSVFIFPPSDEQLKSGTASVVCLLNNFYPREAKVQWKVDNALQSGNSQESVTEQDSKDSTYSLSSTLTLSKADYEKHKVYACEVTHQGLSSPVTKSFNRGEC
notes: N-terminal VD HGF, C-terminal VD RON; also called DVD034H; DVD034L
- Kd [3]: 0.0215 nM
- koff [3]: 6.55e-05 s⁻¹
- kon [3]: 3.05e+06 M⁻¹ s⁻¹

B12: DVD470 (bispecific antibody, human IgG1, kappa)
heavy: not shown
light: DIQMTQSPSSLSASVGDRVTITCSASQDISNYLNWYQQKPGKAPKVLIYFTSSLHSGVPSRFSGSGSGTDFTLTISSLQPEDFATYYCQQYSTVPWTFGQGTKVEIKRTVAAPSVFIFPPDIQMTQSPSSLSASVGDRVTITCRASQDVSTAVAWYQQKPGKAPKLLIYSASFLYSGVPSRFSGSGSGTDFTLTISSLQPEDFATTYYCQQSYTGTVTFGQGTKVEIKRTVAAPSVFIFPPSDEQLKSGTASVVCLLNNFYPREAKVQWKVDNALQSGNSQESVTEQDSKDSTYSLSSTLTLSKADYEKHKVYACEVTHQGLSSPVTKSFNRGEC
- inhibition of HUVEC proliferation (IC50) [1]: 0.45 nM

B14: AB008 (antibody, human IgG1, kappa, V domains shown)
VH: QVQLVQSGAEVKKPGSSVKVSCKASGYTFTSYWLHWVRQAPGQGLEWIGYINPRNDYTEYNQNFKDKATITADESTNTAYMELSSLRSEDTAFYFCARRDITTFYWGQGTTVTVSS
VL: DIQLTQSPSSLSASVGDRVTMSCKSSQSVLYSANHKNYLAWYQQKPGKAPKLLIYWASTRESGVPSRFSGSGSGTDFTFTISSLQPEDIATYYCHQYLSSWTFGGGTKLEIKR
- Inhibition Of Akt Phosphorylation (% Inhibition At 6.7 nM Ab/DVD) [2]: -13%
- Inhibition Of Akt Phosphorylation (% Inhibition At 67 nM Ab/DVD) [2]: 8%

Now from value to binder:

- inhibition of HUVEC proliferation (IC50) [1]: 59.5 nM
B1: DVD485 (bispecific antibody, human IgG1, kappa)
heavy: not shown
light: DIQMTQSPSSLSASVGDRVTITCRASQDVSTAVAWYQQKPGKAPKLLIYSASFLYSGVPSRFSGSGSGTDFTLTISSLQPEDFATTYYCQQSYTGTVTFGQGTKVEIKRTVAAPSVFIFPPDIQMTQSPSSLSASVGDRVTITCRASQVIRRSLAWYQQKPGKAPKLLIYAASNLASGVPSRFSGSGSGTDFTLTISSLQPEDFATYYCQQSNTSPLTFGQGTKVEIKRTVAAPSVFIFPPSDEQLKSGTASVVCLLNNFYPREAKVQWKVDNALQSGNSQESVTEQDSKDSTYSLSSTLTLSKADYEKHKVYACEVTHQGLSSPVTKSFNRGEC

- inhibition of HUVEC proliferation (IC50) [1]: 0.88 nM
B5: DVD486 (bispecific antibody, human IgG1, kappa)
heavy: not shown
light: DIQMTQSPSSLSASVGDRVTITCRASQVIRRSLAWYQQKPGKAPKLLIYAASNLASGVPSRFSGSGSGTDFTLTISSLQPEDFATYYCQQSNTSPLTFGQGTKVEIKRTVAAPSVFIFPPDIQMTQSPSSLSASVGDRVTITCRASQDVSTAVAWYQQKPGKAPKLLIYSASFLYSGVPSRFSGSGSGTDFTLTISSLQPEDFATTYYCQQSYTGTVTFGQGTKVEIKRTVAAPSVFIFPPSDEQLKSGTASVVCLLNNFYPREAKVQWKVDNALQSGNSQESVTEQDSKDSTYSLSSTLTLSKADYEKHKVYACEVTHQGLSSPVTKSFNRGEC

- IC50 [4]: 2.59 nM
B10: DVD573 (bispecific antibody, human IgG1, kappa)
heavy: not shown
light: DIVLTQSPDSLAVSLGERVTMNCKSSQSLLNSGMRKSFLAWYQQKPGQSPKLLIYWASTRESGVPDRFTGSGSGTDFTLTISSVQAEDVAVYYCKQSYHLFTFGSGTKLEIKRTVAAPDIQMTQSPSSLSASVGDRVTITCRASQDVSTAVAWYQQKPGKAPKLLIYSASFLYSGVPSRFSGSGSGTDFTLTISSLQPEDFATYYCQQSYTTPPTFGQGTKVEIKRTVAAPSVFIFPPSDEQLKSGTASVVCLLNNFYPREAKVQWKVDNALQSGNSQESVTEQDSKDSTYSLSSTLTLSKADYEKHKVYACEVTHQGLSSPVTKSFNRGEC
notes: also called DVD573H; DVD573L

- inhibition of HUVEC proliferation (IC50) [1]: 0.32 nM
B13: DVD482 (bispecific antibody, human IgG1, kappa)
heavy: not shown
light: DIQMTQSPSSLSASVGDRVTITCSASQDISNYLNWYQQKPGKAPKVLIYFTSSLHSGVPSRFSGSGSGTDFTLTISSLQPEDFATYYCQQYSTVPWTFGQGTKVEIKRTVAAPSVFIFPPDIQMTQSPSSLSASVGDRVTITCRASQDVSTAVAWYQQKPGKAPKLLIYSASFLYSGVPSRFSGSGSGTDFTLTISSLQPEDFATTYYCQQSYTGTVTFGQGTKVEIKRTVAAPSVFIFPPSDEQLKSGTASVVCLLNNFYPREAKVQWKVDNALQSGNSQESVTEQDSKDSTYSLSSTLTLSKADYEKHKVYACEVTHQGLSSPVTKSFNRGEC

- EC50 [5]: 17.6 nM
- EC50 [6]: 1.44 nM
B15: DVD570 (bispecific antibody, human IgG1, kappa)
heavy: not shown
light: DIQMTQSPSSLSASVGDRVTITCRASQVIRRSLAWYQQKPGKAPKLLIYAASNLASGVPSRFSGSGSGTDFTLTISSLQPEDFATYYCQQSNTSPLTFGQGTKVEIKRTVAAPSVFIFPPAIQMTQSSSSFSVSLGDRVTITCKASEDIYNRFAWYQQKPGNAPRLLISGAASLEAGVPSRFSGSGSGQDYTLSITSLQTEDVATYYCQQYWSTPWTFGGGTKLEIKRTVAAPSVFIFPPSDEQLKSGTASVVCLLNNFYPREAKVQWKVDNALQSGNSQESVTEQDSKDSTYSLSSTLTLSKADYEKHKVYACEVTHQGLSSPVTKSFNRGEC
notes: outer AB071 (VEGF), inner AB074 (PlGF); HC linker short, LC linker long; also called DVD-Ig DVD570
